# Substitutions are numbered along the chain they refer to. Names and notes keep the numbering of the source.
# B1: C12K-D12 (antibody, V domains shown)
# VH: EVQLLESGGGLVQPGGSLRLSCAASGFRISDEDMGWVRQAPGKGLEWVSYIDNAGASTYYADSVKGRFTISRDNSKNTLYLQMNSLRAEDTAVYYCAKSLGPNPEFDYWGQGTLVTVSS
# VL: DIQMTQSPSSLSASVGDRVTITCRASQSISSYLNWYQQKPGKAPKLLIYYASNLQSGVPSRFSGSGSGTDFTLTISSLQPEDFATYYCQQGLGMPITFGQGTKVEIK
# B2: G1K-C4 (antibody, V domains shown)
# VH: EVQLLESGGGLVQPGGSLRLSCAASGFRFDYEDMGWVRQAPGKGLEWVSSIDSHGASTYYADSVKGRFTISRDNSKNTLYLQMNSLRAEDTAVYYCAKYSHSVSYGPFDYWGQGTLVTVSS
# VL: B1 VL with S28Y, S31Y, Y32D, Y50S, N53S, G91T, L92N, G93T, M94Y, I96Q
# B3: C12K-G10 (antibody, V domains shown)
# VH: B1 VH with G101N, P102S, N103L, P104G, E105V
# VL: B1 VL with S30Y, S31D, N53A
# Tests used:
# [1] = target: T1, SARS-CoV-2 S protein RBD (residues 319-541 of the S protein), soluble, with C-terminal Avitag and His tag (SARS-CoV-2, UniProt P0DTC2 319-541); assay: biolayer interferometry (BLItz), […]
# [2] = target: T1, SARS-CoV-2 S protein RBD (residues …); assay: biolayer interferometry (BLItz), […], global fit
Binder,Kd [1],Kd [2]
B1,1 nM,–
B2,–,59 nM
B3,0.788 nM,–

# — patent US20240043506A1 (GARVAN INSTITUTE OF MEDICAL RESEARCH, published 2024)
